According to the Human Domainome abundance scans (Beltran et al. 2025):
± gives the uncertainty stated by the source.

B1: Poly(rC)-binding protein 1, residues 278 to 350; numbered along this chain, Q15365 (parent)
chain: TQTTHELTIPNNLIGCIIGRQGANINEIRQMSGAQIKIANPVEGSSGRQVTITGSAASISLAQYLINARLSSE

Variants of: B1
Assay: abundance fitness (aPCA) (normalised: wild type 0, dead -1); higher = more abundant; growth selection in yeast, the domain comes from the species named
Conditions: Homo sapiens

| Variant | abundance fitness |
| --- | --- |
| N40Y | -0.165 ± 0.1 |
| N40L | -0.17 ± 0.041 |
| N40S | -0.012 ± 0.042 |
| N40P | -0.002 ± 0.048 |
| N40H | -0.094 ± 0.084 |
| N40D | 0.034 ± 0.07 |
| N40G | 0.026 ± 0.029 |
| K37C | -0.4 ± 0.17 |
| K37I | 0.124 ± 0.097 |
| K37L | -0.142 ± 0.036 |
| K37F | -0.41 ± 0.22 |
| K37A | -0.109 ± 0.049 |
| K37N | 0.032 ± 0.086 |
| K37S | -0.11 ± 0.066 |
| K37W | -0.215 ± 0.051 |
| K37M | -0.065 ± 0.045 |
| K37H | -0.272 ± 0.15 |
| K37T | 0.051 ± 0.064 |
| K37G | -0.255 ± 0.04 |
| K37Q | 0.083 ± 0.064 |
| K37E | 0.01 ± 0.051 |
| K37D | -0.034 ± 0.076 |
| K37Y | 0.007 ± 0.1 |
| K37V | -0.032 ± 0.032 |

| Variant | abundance fitness |
| --- | --- |
| K37P | -0.718 ± 0.17 |
| A39K | -0.05 ± 0.071 |
| A39G | 0.061 ± 0.034 |
| A39M | -0.092 ± 0.05 |
| A39F | -0.46 ± 0.19 |
| A39V | -0.382 ± 0.046 |
| A39L | -0.04 ± 0.038 |
| A39W | -0.071 ± 0.055 |
| A39D | 0.032 ± 0.097 |
| A39I | -0.029 ± 0.12 |
| A39N | 0.076 ± 0.15 |
| A39R | -0.17 ± 0.039 |
| A39C | -0.035 ± 0.089 |
| A39P | -0.428 ± 0.1 |
| A39S | 0.03 ± 0.049 |
| A39Q | -0.075 ± 0.077 |
| R29P | -0.817 ± 0.19 |
| R29E | 0.062 ± 0.058 |
| R29F | -0.271 ± 0.15 |
| R29N | 0.037 ± 0.12 |
| R29M | -0.022 ± 0.056 |
| R29S | -0.046 ± 0.05 |
| R29C | -0.205 ± 0.059 |
| R29V | -0.129 ± 0.036 |

| Variant | abundance fitness |
| --- | --- |
| R29L | -0.386 ± 0.05 |
| R29Y | -0.55 ± 0.23 |
| R29I | -0.081 ± 0.1 |
| R29A | -0.059 ± 0.033 |
| R29H | -0.225 ± 0.14 |
| R29T | -0.085 ± 0.066 |
| R29Q | 0.067 ± 0.063 |
| R29D | -0.631 ± 0.17 |
| R29W | -1.06 ± 0.16 |
| R29G | -0.142 ± 0.035 |
| R29K | -0.18 ± 0.082 |
| R48E | -0.752 ± 0.088 |
| R48D | -0.626 ± 0.12 |
| R48I | -0.205 ± 0.08 |
| R48A | -0.113 ± 0.04 |
| R48G | -0.597 ± 0.043 |
| R48C | -0.114 ± 0.05 |
| R48H | -0.118 ± 0.085 |
| P41D | -0.092 ± 0.053 |
| P41A | 0.057 ± 0.038 |
| P41M | 0.115 ± 0.057 |
| P41C | -0.09 ± 0.065 |
| P41L | -0.046 ± 0.047 |
| P41G | -0.11 ± 0.033 |

| Variant | abundance fitness |
| --- | --- |
| P41V | -0.218 ± 0.043 |
| P41S | -0.061 ± 0.046 |
| P41I | -0.196 ± 0.12 |
| P41R | 0.018 ± 0.035 |
| P41T | -0.081 ± 0.058 |
| P41Q | 0.049 ± 0.055 |
| P41E | -0.012 ± 0.042 |
| P41Y | -0.021 ± 0.1 |
| M31S | -0.171 ± 0.053 |
| M31P | -0.894 ± 0.17 |
| M31T | -0.051 ± 0.073 |
| M31Q | 0.095 ± 0.047 |
| M31I | -0.196 ± 0.14 |
| M31G | -0.347 ± 0.043 |
| M31C | 0.029 ± 0.088 |
| M31R | 0.088 ± 0.032 |
| M31A | 0.038 ± 0.046 |
| M31E | 0.019 ± 0.049 |
| M31W | -0.325 ± 0.056 |
| M31D | -0.337 ± 0.18 |
| M31F | -0.109 ± 0.24 |
| M31L | -0.009 ± 0.042 |
| M31K | 0.162 ± 0.061 |
| M31N | 0.203 ± 0.13 |

| Variant | abundance fitness |
| --- | --- |
| M31Y | -0.056 ± 0.16 |
| M31V | -0.126 ± 0.047 |
| S45N | -0.031 ± 0.067 |
| S45H | -0.223 ± 0.087 |
| S45Q | -0.054 ± 0.065 |
| S45R | -0.157 ± 0.07 |
| S45P | -0.442 ± 0.091 |
| S45K | 0.094 ± 0.076 |
| S45I | -0.093 ± 0.076 |
| S45E | 0.002 ± 0.1 |
| S45V | -0.012 ± 0.087 |
| S45G | -0.292 ± 0.12 |
| S45D | 0.026 ± 0.15 |
| S45A | -0.002 ± 0.062 |
| S45L | -0.011 ± 0.05 |
| S45C | 0.012 ± 0.13 |
| S45Y | -0.044 ± 0.075 |
| S45M | 0.005 ± 0.073 |
| S45T | 0.056 ± 0.046 |
| S45W | -0.431 ± 0.15 |
| S45F | -0.009 ± 0.094 |
| S32M | -0.703 ± 0.087 |
| S32W | -1.14 ± 0.23 |
| S32C | -0.201 ± 0.13 |

| Variant | abundance fitness |
| --- | --- |
| S32L | -0.703 ± 0.12 |
| S32K | -0.8 ± 0.11 |
| S32D | -0.965 ± 0.19 |
| S32G | -0.793 ± 0.054 |
| S32I | -0.882 ± 0.25 |
| S32A | -0.498 ± 0.074 |
| S32Q | -0.334 ± 0.14 |
| S32V | -0.858 ± 0.086 |
| S32R | -0.85 ± 0.07 |
| S32T | -0.16 ± 0.048 |
| S32P | -0.91 ± 0.26 |
| S32F | -1 ± 0.47 |
| S46E | -0.088 ± 0.057 |
| S46I | -0.104 ± 0.08 |
| S46F | 0.002 ± 0.075 |
| S46D | 0.19 ± 0.076 |
| S46M | -0.139 ± 0.054 |
| S46N | 0.069 ± 0.052 |
| S46A | -0.015 ± 0.051 |
| S46V | -0.179 ± 0.067 |
| S46P | -0.029 ± 0.049 |
| S46C | -0.021 ± 0.081 |
| S46W | -0.125 ± 0.069 |
| S46Q | -0.048 ± 0.048 |

| Variant | abundance fitness |
| --- | --- |
| S46R | -0.106 ± 0.048 |
| S46Y | -0.117 ± 0.057 |
| S46L | 0.064 ± 0.041 |
| S46H | -0.205 ± 0.084 |
| S46K | -0.002 ± 0.044 |
| S46T | -0.063 ± 0.046 |
| S46G | -0.032 ± 0.057 |
| I38A | -0.672 ± 0.07 |
| I38D | -0.754 ± 0.14 |
| I38S | -0.814 ± 0.13 |
| I38E | -0.679 ± 0.085 |
| I38F | -0.301 ± 0.16 |
| I38R | -0.737 ± 0.068 |
| I38K | -0.612 ± 0.11 |
| I38G | -0.727 ± 0.054 |
| I38C | -0.793 ± 0.35 |
| I38L | -0.11 ± 0.048 |
| I38M | -0.333 ± 0.077 |
| I38Q | -0.828 ± 0.14 |
| I38T | -0.403 ± 0.11 |
| I38W | -0.53 ± 0.063 |
| I38V | -0.094 ± 0.041 |
| I38P | -0.631 ± 0.12 |
